Our source for the ΔH values is article PMC2713044.

The experiment has as its target Hen egg white lysozyme (HEL) (UniProt P00698). Nature of the experiment: isothermal titration calorimetry. The settings on record: pH 8.0, 25.0 °C, no added salt (10 mM buffer only), 10 mM Tris.
UniProt P00698, sequence (P00698 whole entry): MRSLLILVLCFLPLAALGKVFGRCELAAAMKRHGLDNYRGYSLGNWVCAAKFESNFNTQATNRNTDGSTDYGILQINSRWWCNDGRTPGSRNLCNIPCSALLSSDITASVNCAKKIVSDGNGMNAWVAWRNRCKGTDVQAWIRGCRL

Regarding “HyHEL-10 (HH10) monoclonal antibody, whole IgG1”, the ΔH is -20.5 kcal/mol.
